Test results: patent US20240182536A1 (MURAL ONCOLOGY, published 2024)
Like-named read-outs stand apart in the source and are kept apart here.

T1: IL-18 receptors on HEK-Blue IL-18 reporter cells (InvivoGen) (UniProt Q13478 19-541; O95256 20-599)
T1 sequence (looked up) 1: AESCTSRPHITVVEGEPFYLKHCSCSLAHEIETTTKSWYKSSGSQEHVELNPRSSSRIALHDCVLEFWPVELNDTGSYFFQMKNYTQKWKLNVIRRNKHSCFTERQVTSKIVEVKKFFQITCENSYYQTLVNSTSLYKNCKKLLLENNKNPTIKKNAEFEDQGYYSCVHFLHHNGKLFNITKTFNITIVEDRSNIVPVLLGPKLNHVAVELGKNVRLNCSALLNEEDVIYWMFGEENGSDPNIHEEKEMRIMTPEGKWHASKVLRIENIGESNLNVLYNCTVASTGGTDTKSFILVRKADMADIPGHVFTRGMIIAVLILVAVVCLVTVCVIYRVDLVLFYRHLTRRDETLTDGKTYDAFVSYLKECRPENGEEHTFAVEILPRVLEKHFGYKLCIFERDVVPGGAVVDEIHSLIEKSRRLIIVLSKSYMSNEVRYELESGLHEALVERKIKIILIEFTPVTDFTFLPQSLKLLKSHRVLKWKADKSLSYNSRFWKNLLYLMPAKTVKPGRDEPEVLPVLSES
T1 sequence (looked up) 2: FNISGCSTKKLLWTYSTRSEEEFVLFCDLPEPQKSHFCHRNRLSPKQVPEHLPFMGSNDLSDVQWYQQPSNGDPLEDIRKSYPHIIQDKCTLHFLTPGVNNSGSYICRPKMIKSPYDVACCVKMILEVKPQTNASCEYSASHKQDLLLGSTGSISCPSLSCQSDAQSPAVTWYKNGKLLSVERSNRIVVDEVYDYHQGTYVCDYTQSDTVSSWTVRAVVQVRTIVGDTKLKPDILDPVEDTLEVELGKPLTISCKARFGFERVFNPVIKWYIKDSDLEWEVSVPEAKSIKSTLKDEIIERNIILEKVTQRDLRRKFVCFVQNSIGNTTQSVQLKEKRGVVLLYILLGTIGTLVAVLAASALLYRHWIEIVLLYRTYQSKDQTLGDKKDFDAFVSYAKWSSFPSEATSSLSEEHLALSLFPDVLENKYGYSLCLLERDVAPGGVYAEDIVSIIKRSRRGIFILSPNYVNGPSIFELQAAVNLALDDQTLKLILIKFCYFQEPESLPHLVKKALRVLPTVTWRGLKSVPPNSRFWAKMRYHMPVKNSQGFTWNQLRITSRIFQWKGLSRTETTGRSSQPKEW

T2: human IL-18 binding protein (IL-18BP) (human, UniProt O95998 31-194)
T2 sequence (looked up): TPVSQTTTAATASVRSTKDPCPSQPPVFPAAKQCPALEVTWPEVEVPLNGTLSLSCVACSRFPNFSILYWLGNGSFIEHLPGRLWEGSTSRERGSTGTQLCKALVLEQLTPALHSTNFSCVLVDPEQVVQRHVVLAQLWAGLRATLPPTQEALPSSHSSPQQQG

T3: human IL-18 binding protein (human, UniProt O95998 31-194)
T3 sequence (looked up): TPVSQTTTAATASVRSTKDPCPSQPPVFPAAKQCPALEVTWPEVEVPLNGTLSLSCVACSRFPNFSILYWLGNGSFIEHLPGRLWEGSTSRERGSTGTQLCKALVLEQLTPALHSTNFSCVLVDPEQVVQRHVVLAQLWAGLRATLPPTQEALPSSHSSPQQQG

T4: IL-18 receptors on HEK-Blue IL-18 reporter cells (UniProt Q13478 19-541; O95256 20-599, limits assumed)
T4 sequence (looked up) 1: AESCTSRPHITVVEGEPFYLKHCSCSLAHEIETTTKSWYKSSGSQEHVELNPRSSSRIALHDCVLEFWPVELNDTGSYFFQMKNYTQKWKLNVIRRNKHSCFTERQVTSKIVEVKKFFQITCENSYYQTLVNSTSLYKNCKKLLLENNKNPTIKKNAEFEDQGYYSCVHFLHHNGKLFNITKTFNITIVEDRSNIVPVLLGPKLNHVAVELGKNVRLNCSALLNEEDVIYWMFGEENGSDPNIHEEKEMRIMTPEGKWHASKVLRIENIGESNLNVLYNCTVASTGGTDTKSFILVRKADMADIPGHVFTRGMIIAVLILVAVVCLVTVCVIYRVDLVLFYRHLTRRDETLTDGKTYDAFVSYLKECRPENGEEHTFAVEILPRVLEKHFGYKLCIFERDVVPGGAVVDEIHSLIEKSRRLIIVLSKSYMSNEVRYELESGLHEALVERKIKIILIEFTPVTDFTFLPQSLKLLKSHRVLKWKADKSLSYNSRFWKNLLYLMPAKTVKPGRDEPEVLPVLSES
T4 sequence (looked up) 2: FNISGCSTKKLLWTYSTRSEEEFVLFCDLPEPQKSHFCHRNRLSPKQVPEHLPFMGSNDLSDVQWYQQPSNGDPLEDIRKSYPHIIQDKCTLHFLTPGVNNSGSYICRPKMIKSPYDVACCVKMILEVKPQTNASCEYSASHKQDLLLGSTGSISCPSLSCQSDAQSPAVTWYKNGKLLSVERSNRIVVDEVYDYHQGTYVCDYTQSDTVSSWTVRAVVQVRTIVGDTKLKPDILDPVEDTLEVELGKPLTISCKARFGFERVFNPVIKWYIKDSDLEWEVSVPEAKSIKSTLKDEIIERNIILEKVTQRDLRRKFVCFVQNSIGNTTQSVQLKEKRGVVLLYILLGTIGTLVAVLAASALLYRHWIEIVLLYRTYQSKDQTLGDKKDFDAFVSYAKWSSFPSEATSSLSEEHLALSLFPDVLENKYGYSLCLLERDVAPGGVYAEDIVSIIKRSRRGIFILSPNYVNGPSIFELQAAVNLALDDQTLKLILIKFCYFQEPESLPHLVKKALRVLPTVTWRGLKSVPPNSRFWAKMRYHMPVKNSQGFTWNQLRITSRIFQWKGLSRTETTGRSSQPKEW


Columns and labels:
[1] = target: T1, IL-18 receptors on HEK-Blue IL-18 …; assay: cell-based or functional assay
[2] = target: T2, human IL-18 binding protein (IL-18BP); assay: cell-based or functional assay
[3] = target: T2, human IL-18 binding protein (IL-18BP); assay: Octet BLI
Method: Octet 96red instrument was used to determine affinities of IL18 proteins to BP or receptors. 5-10 ug/ml analyte proteins were used for loading on Sartorius tips (AHC or SA). […] 120-180 s loading, 200 s association and 800 s dissociation were used for kinetics. 3-7 data points were used to calculate affinities.
Select G3/K53-substitution containing IL-18 variants and select G3/K53/N91-substitution containing TL-18 variants were tested for activity in the HEK-blue activity assay and for binding affinity to IL-18BP. As shown in the data of Table 15 and Table 16 below, each variant had similar or better activity than WT IL-18, and retained substantial activity in the presence of IL-18BP.

[4] = target: T3, human IL-18 binding protein; assay: cell-based or functional assay
[5] = target: T4, IL-18 receptors on HEK-Blue IL-18 …; assay: cell-based or functional assay
[6] = target: T3, human IL-18 binding protein; assay: cell-based or functional assay; remark: listed apart in the source
[7] = target: T4, IL-18 receptors on HEK-Blue IL-18 …; assay: cell-based or functional assay; remark: listed apart in the source

Binder	HEK-Blue Ec50 (pM), -IL-18BP [1]	HEK-Blue Ec50 (pM), +IL-18BP (50 nM) [2]	Kd [3]	koff [3]	kon [3]	HEK-blue EC50 (pM) + 1000 nM BP [4]	HEK-blue EC50 (pM) - BP [5]	HEK-blue EC50 (pM) + 300 nM BP [6]	HEK-blue EC50 (pM) - BP [7]
IL-18 variant G3A, N91L, K53S (ligand) YFAKLESKLSVIRNLNDQVLFIDQGNRPLFEDMTDSDMRDNAPRTIFIISMYSDSQPRGMAVTISVKSEKISTLSSENKIISFKEMNPPDLIKDTKSDIIFFQRSVPGHDNKMQFESSSYEGYFLASEKERDLFKLILKKEDELGDRSIMFTVQNED	0.71 pM	5.82 pM	4.8 nM	0.00103 s⁻¹	216000 M⁻¹ s⁻¹				
human IL-18 variant G3V/E6K/K53A (ligand) YFVKLKSKLSVIRNLNDQVLFIDQGNRPLFEDMTDSDMRDNAPRTIFIISMYADSQPRGMAVTISVKSEKISTLSSENKIISFKEMNPPDNIKDTKSDIIFFQRSVPGHDNKMQFESSSYEGYFLASEKERDLFKLILKKEDELGDRSIMFTVQNED						1.26 pM	0.05 pM	1.68 pM	0.038 pM
human IL-18 variant G3V/M60K (ligand) YFVKLESKLSVIRNLNDQVLFIDQGNRPLFEDMTDSDMRDNAPRTIFIISMYKDSQPRGKAVTISVKSEKISTLSSENKIISFKEMNPPDNIKDTKSDIIFFQRSVPGHDNKMQFESSSYEGYFLASEKERDLFKLILKKEDELGDRSIMFTVQNED						1.05 pM	1.43 pM	0.507 pM	0.042 pM
IL-18 variant G3K, N91I, K53S (ligand) YFKKLESKLSVIRNLNDQVLFIDQGNRPLFEDMTDSDMRDNAPRTIFIISMYSDSQPRGMAVTISVKSEKISTLSSENKIISFKEMNPPDIIKDTKSDIIFFQRSVPGHDNKMQFESSSYEGYFLASEKERDLFKLILKKEDELGDRSIMFTVQNED	0.2 pM	7.05 pM	1.9 nM	0.000406 s⁻¹	218000 M⁻¹ s⁻¹				
IL-18 variant G3R, N91A, K53S (ligand, also called G3R/K53S/N91A) YFRKLESKLSVIRNLNDQVLFIDQGNRPLFEDMTDSDMRDNAPRTIFIISMYSDSQPRGMAVTISVKSEKISTLSSENKIISFKEMNPPDAIKDTKSDIIFFQRSVPGHDNKMQFESSSYEGYFLASEKERDLFKLILKKEDELGDRSIMFTVQNED	0.25 pM	2.27 pM	3.4 nM	0.000728 s⁻¹	213000 M⁻¹ s⁻¹				
